Measurements published in EP4039268A1 (IMBA-Institut für Molekulare Biotechnologie GmbH, dated 2022).

B1: Klrd1 CRD-mouse IgG2a-Fc fusion protein (Fc fusion)
chain: HQCNCYFISKEEKSWKRSRDFCASQNSSLLQPQSRNELSFMNFSQTFFWIGMHYSEKRNAWLWEDGTVPSKDLFPEFSVIRPEHCIVYSPSKSVSAESCENKNRYICKGGGSGGGSGGGS
B2: Clec9a CRD-mouse IgG2a-Fc fusion protein (Fc fusion)
chain: NGKSCYYVFERWEMWNISKKSCLKEGASLFQIDSKEEMEFISSIGKLKGGNKYWVGVFQDGISGSWFWEDGSSPLSDLLPAERQRSAGQICGYLKDSTLISDKCDSWKYFICEGGGSGGGSGGGS
B3: Clec2l CRD-mouse IgG2a-Fc fusion protein (Fc fusion)
chain: YGRKCYYFSEEPRDWNTGRQYCHTHEAALAVIQSQKELEFMFKFTRREPWIGLRRVGDDFHWVNGDPFDPDTFTISGMGECVFVEPTRLVSTECLTTRPWVCSGGGSGGGSGGGS
B4: Cd209a CRD-mouse IgG2a-Fc fusion protein (Fc fusion)
chain: FQGSCYFFSVAQKSWNDSATACHNVGAQLVVIKSDEEQNFLQQTSKKRGYTWMGLIDMSKESTWYWVDGSPLTLSFMKYWSKGEPNNLGEEDCAEFRDDGWNDTKCTNKKFWICKGGGSGGGSGGGS
B5: Cd207 CRD-mouse IgG2a-Fc fusion protein (Fc fusion)
chain: FSGNFYYFSRTPKTWYSAEQFCISRKAHLTSVSSESEQKFLYKAADGIPHWIGLTKAGSEGDWYWVDQTSFNKEQSRRFWIPGEPNNAGNNEHCANIRVSALKCWNDGPCDNTFLFICKGGGSGGGSGGGS
B6: Klri2 CRD-mouse IgG2a-Fc fusion protein (Fc fusion)
chain: FGNNFYCVFRENSKTWVESQSACEELNSHLVIIDSKAEVENLLLFEMDGWILHRMDGTNSSRLWGNDIKIRNTLMNDSEKKNHSCHYLRGNIFMPDECSAKKTYICEGGGSGGGSGGGS
B7: Lgalslb CRD-mouse IgG2a-Fc fusion protein (Fc fusion)
chain: YFRGHIKGGMRPGKKVLVMGIVDHNPKSFAISLTCGDSEDPPADVAIELKVVFTNQQVFRNSCISGESDEENLAFPYFPFVPDQPFRMEIFCQQPCFRVLVDGHHLFDFYHRIQTLSAIDSIKISGDLQIGGGSGGGSGGGS
B8: Colec10 CRD-mouse IgG2a-Fc fusion protein (Fc fusion)
chain: TEEKFYYIVQEEKNYRESLTHCRIRGGMLAMPKDEVVNTLIADYVAKSGFFRVFIGVNDLEREGQYVFTDNTPLQNYSNWKEEEPSDPSGHEDCVEMLSSGRWNDTECHLTMYFVCEGGGSGGGSGGGS
B9: Klrb1a CRD-mouse IgG2a-Fc fusion protein (Fc fusion)
chain: ECPQDWLSHRDKCFHVSHVSNTWEEGLVDCDGKGATLMLIQDQEELRFLLDSIKEKYNSFWIGLRYTLPDMNWKWINGSTLNSDVLKITDDTENDSCAAISGDKVTFESCNSDNRWICQKGGGSGGGSGGGS
B10: Clec3a CRD-mouse IgG2a-Fc fusion protein (Fc fusion)
chain: VHKKCYLASEGLKHYHEANEDCISKGGTLVVPRNSDEINALRDYGKRSLPGVNDFWLGINDMVTEGKFLDVHGFAVSFLNWDRAQPSGGKRENCVLFSQSAQGKWSDEACRSSKRYICEGGGSGGGSGGGS
B11: Lgals12_2 CRD-mouse IgG2a-Fc fusion protein (Fc fusion)
chain: CSRALPRGLWPGQVIVVRGLVLKEPKDFTLSLKDGTTHVPVTLRASFTDRTLAWVSSWGRKKLISAPFLFHPQRFFEVLLLCQEGGLKLALNGQGLGATSLDQKALEQLRELRISGNVHLYCVHCGGGSGGGSGGGS
B12: Lgals4_2 CRD-mouse IgG2a-Fc fusion protein (Fc fusion)
chain: YVGALQGGLTVRRTIIIKGYVLPTARNFVINFKVGSSGDIALHLNPRIGDSVVRNSFMNGSWGAEERKVAYNPFGPGQFFDLSIRCGMDRFKVFANGQHLFDFSHRFQAFQMVDTLEINGDITLSYVQIGGGSGGGSGGGS
B13: Klrb1 CRD-mouse IgG2a-Fc fusion protein (Fc fusion)
chain: HCDKCLFTSQTSRPWADGLVDCNLKGATLLLIQDEEELRLLQNFSKGKGQQFYIGLKYEEVDKVWKWMNGSILNTNLLQITGKDEENSCALISQTEVFSDSCSSDNHWICQGGGSGGGSGGGS
B14: Grifin CRD-mouse IgG2a-Fc fusion protein (Fc fusion)
chain: FEAFCAGGLAPGWSLTVQGHADAGEEKFEINFLTDAGDIAFHVKPRFSSATVVGNAFQGGRWGQEEVSSIFPLTLGEPFEMEVSADAEHFHIYAQEQKVLQFPHRHRPLATITRVRVLSEHRLAQVELAGGGSGGGSGGGS
B15: Lgals2 CRD-mouse IgG2a-Fc fusion protein (Fc fusion)
chain: KFEVKDLNMKPGMSLKIKGKIHNDVDRFLINLGQGKETLNLHFNPRFDESTIVCNTSEGGRWGQEQRENHMCFSPGSEVKITITFQDKDFKVTLPDGHQLTFPNRLGHNQLHYLSMGGLQISSFKLEGGGSGGGSGGGS
B16: Lgals8_2 CRD-mouse IgG2a-Fc fusion protein (Fc fusion)
chain: FEARLNASMGPGRTVVIKGEVNTNARSFNVDLVAGKTRDIALHLNPRLNVKAFVRNSFLQDAWGEEERNITCFPFSSGMYFEMIIYCDVREFKVAINGVHSLEYKHRFKDLSSIDTLSVDGDIRLLDVRSWGGGSGGGSGGGS
B17: Clec3b CRD-mouse IgG2a-Fc fusion protein (Fc fusion)
chain: VNLKCLLAFTQPKTFHEASEDCISQGGTLGTPQSELENEALFEYARHSVGNDANIWLGLNDMAAEGAWVDMTGGLLAYKNWETEITTQPDGGKAENCAALSGAANGKWFDKRCRDQLPYICQGGGSGGGSGGGS
B18: Lgals8_1 CRD-mouse IgG2a-Fc fusion protein (Fc fusion)
chain: YVGTITEQLKPGSLIVIRGHVPKDSERFQVDFQLGNSLKPRADVAFHFNPRFKRSSCIVCNTLTQEKWGWEEITYDMPFRKEKSFEIVFMVLKNKFQVAVNGRHVLLYAHRISPEQIDTVGIYGKVNIHSIGFRGGGSGGGSGGGS
B19: Clec4e CRD-mouse IgG2a-Fc fusion protein (Fc fusion)
chain: YQSSCYFFSTTTLTWSSSLKNCSDMGAHLVVIDTQEEQEFLFRTKPKRKEFYIGLTDQVVEGQWQWVDDTPFTESLSFWDAGEPNNIVLVEDCATIRDSSNSRKNWNDIPCFYSMPWICEGGGSGGGSGGGS
B20: Colec11 CRD-mouse IgG2a-Fc fusion protein (Fc fusion)
chain: TESKIYLLVKEEKRYADAQLSCQARGGTLSMPKDEAANGLMASYLAQAGLARVFIGINDLEKEGAFVYSDRSPMQTFNKWRSGEPNNAYDEEDCVEMVASGGWNDVACHITMYFMCEGGGSGGGSGGGS
B21: Frem1 CRD-mouse IgG2a-Fc fusion protein (Fc fusion)
chain: HSGYCHILVTRQKGTWTTATRACREQHQGDLVTVLSRRHMQWLWAMSGRKPFWIGLKNQPRTGHWEWIGGEPVAFTNWRRGAPLHPKPGKNCALVQKRGQWQTKNCSKGKAHNFVGGGSGGGSGGGS
B22: Dgcr2 CRD-mouse IgG2a-Fc fusion protein (Fc fusion)
chain: CPSGWHHYEGTASCYRVYLSGENYWDAAQTCQRVNGSLATFSTDQELRFVLAQEWDQPERSFGWKDQRKLWVGYQYVITGRNHSLEGRWEVAFKGSPEVFLPPDPIFASAMSENDNVFCAQLQCFHFGGGSGGGSGGGS

What was measured:
[1] = biological target: T1, human recombinant soluble ACE2 (human, UniProt Q9BYF1 18-740); assay: ELISA
T1 construct: also called hrsACE2

[2] = biological target: T2, full-length trimeric SARS-CoV-2 Spike protein (Spike-H6) (SARS-CoV-2, N-glycosylated (22 N-glycosylation sites)); assay: ELISA screen
T2 construct: also called trimeric Spike; full-length Spike-H6

[3] = biological target: T3, monomeric SARS-CoV-2 receptor binding domain (RBD-H6) (SARS-CoV-2, UniProt P0DTC2 319-541); assay: ELISA screen
T3 construct: Made in HEK293-6E cells; also called RBD Spike; monomeric RBD

[4] = biological target: T1, human recombinant soluble ACE2; assay: ELISA screen

Binder	binding result [1]	Mean normalized OD [2] [OD]	Mean normalized OD [3] [OD]	Mean normalized OD [4] [OD]
B1	no binding (tested: 10 µg/ml)	0.003	0.004	0.006
B2	no binding (tested: 10 µg/ml)	0.029	0.062	0.222
B3	no binding (tested: 10 µg/ml)	-0.001	0	0
B4	no binding (tested: 10 µg/ml)	0.014	0.028	0.049
B5	no binding (tested: 10 µg/ml)	0.028	0.118	0.123
B6	no binding (tested: 10 µg/ml)	0.006	0.001	0.005
B7	no binding (tested: 10 µg/ml)	0.026	0.01	0.047
B8	no binding (tested: 10 µg/ml)	0.036	0.008	0.185
B9	no binding (tested: 10 µg/ml)	0	0.002	0
B10	no binding (tested: 10 µg/ml)	0.098	0.039	0.045
B11	no binding (tested: 10 µg/ml)	0.025	0.009	0.031
B12	no binding (tested: 10 µg/ml)	0.034	0.014	0.031
B13	no binding (tested: 10 µg/ml)	0.002	0.005	0.012
B14	no binding (tested: 10 µg/ml)	0.004	0	0.035
B15	no binding (tested: 10 µg/ml)	0.035	0.018	0.031
B16	no binding (tested: 10 µg/ml)	0.037	0.012	0.074
B17	no binding (tested: 10 µg/ml)	0.001	0	0.001
B18	no binding (tested: 10 µg/ml)	0.019	0.031	0.062
B19	no binding (tested: 10 µg/ml)	0.037	0.022	0.222
B20	no binding (tested: 10 µg/ml)	0.043	0.013	0.153
B21	no binding (tested: 10 µg/ml)	0.03	0.013	0.028
B22	no binding (tested: 10 µg/ml)	0.005	0.003	0.012
